# Measured values reported in the nanobody polyreactivity screen of Harvey et al. (2022).
# Assay: yeast display, Sf9 membrane polyspecificity reagent, FACS + sequencing; frameworks hold sequencing errors
# Method in brief: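 Using colony PCR, genes from sorted yeast display clones were amplified, then sequenced on MiSeq at 2 × 250 and filtered by CDR length. The clones had been stained with 10% biotinylated, detergent-solubilized Sf9 membrane reagent for 1 hour at 4 °C and sorted by FACS into low and high (top ~1%) gates on anti-HA and streptavidin fluorescence. Polyreactivity labels come from the gate of origin.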
row,Sequence,polyreactivity (PSR sort gate)
1,QVQLVESGGVLVQAGGSLRLSCAASGRIFSNYAMGWYRQAPGKEWELVATIRKGGGSTYYADSVKGRFTISRDNAKNTVYLQMNSLKPEDTAVYYCAADGSLQTRRFDYWGQGTQVTVSS,high polyreactivity
2,QVQLVESGGVLVQAGGSLRLSCAASGRIFSSNAMGWYRHAPGKESEFVADISWRTGSTYYADSVKGRFTISRDNAKNTVYLQMNSLKPEDTAVYYCKKRTGSYGYPYYYWGQGTQVTVSS,high polyreactivity
3,QVQLVESGGVLVQAGGSLRLSCAASGRIFTRNAMGWYRQAPGKERELVASITRGGSTYYADSVKGRFTISRDNAKITVYLQMNCLKAEDTALYYCAAVFYDRGQRYNYWGQGTQVTVSS,high polyreactivity
4,QVQLVESGGVLVQAGGSLRLSCAASGRTFGGNVMAWYRQAPGKERELVAAISYSGGSTHYADSVKGRFTNSRDNAKNTVYLQMNSLKPEDTAVYYCAKDGEVTGDYWGLGTQVTVSS,low polyreactivity
5,QVQLVESGGVLVQAGGSLRLSCAASGRTFRYYAMGWYRQAPGKERELVAAITVTVTSTFYADSVKGRFTISRDNAKNTVYLQMNSLKPEDTAVYYCAKVDRQSPGQYYYWGQGTQVTVSS,low polyreactivity
6,QVQLVESGGVLVQAGGSLRLSCAASGRTFWYNAMGWYRQAPGKEWELVAAISSTGGRTYYADSVKGRFTISRDNAKTTVYLQMNSLKPEDTAVYYCAARQLSSHYDYWGQGTQVTVSS,low polyreactivity
7,QVQLVESGGVLVQAGGSLRLSCAASGRTFYLYAMGWYRHAPGKERELVAAISWSDDTTYYADSVKGRFTISRDNAKNTVYLQRNSLKPEDTAVYYCAAEQEQVALYDYWGQGTQVTVSS,high polyreactivity
8,QVQLVESGGVLVQAGGSLRLSCAASGRTIWYYAMGWYRQAPGKERELVASITRSGGTTYADSVKGRFTISRDNAKNTVYLQMNSLKPEDTAVYYCAATRPRIPVYQNNYGYWGQGTQLTVSS,high polyreactivity
9,QVQLVESGGVLVQAGGSLRLSCAASGRTLGTYAMGWYRQAPGKERELVAAITHSGGTTYYADSVKGRFTISRDNAKNTVYLQMNSLKPEDTAVYYCAADARFRTVSPMDYWGQGTQVTVSS,low polyreactivity
10,QVQLVESGGVLVQAGGSLRLSCAASGRTYGTYAMGWYRQAPGKERELVAGINGSGGSTYYADSVKGRFTISRDNAKNTVFLQMNSLKPEDTAVYYCYKYGRRPYGLRGYWGEGTQVTVSS,high polyreactivity
11,QVQLVESGGVLVQAGGSLRLSCAASGSIFASNAMGWYRQAPGKEREFVAAISWSGTRTYYADSVKGRFTISRDTAKNTVYLQMNSLKPEDTAVYYCAALTVLRNDYWGLGTQVTVSS,low polyreactivity
12,QVQLVESGGVLVQAGGSLRLSCAASGSIFDHYAMGWYRQAPGKERELVAAITYSDGSTYYADSVKGRFTISRDNAKNTVFLQMNSLKPEDTAVFYCAAYPRGSQRYNYWGQGTHVTVSS,high polyreactivity
13,QVQLVESGGVLVQAGGSLRLSCAASGSIFEVNSMGWYRQAPGKERELVDTITYSGGSTYYADSVKGRFTLSRDNAKNNVYLQMNSLKPEDTAVYYCATDYVDWELYIYDYWGQGTQVTVSS,low polyreactivity
14,QVQLVESGGVLVQAGGSLRLSCAASGSIFGTYAMGWYRRAPGKERELVAAITSDGVDTYYADSVKGRFTISRDNAKITVYLQMNSLKPEDTAVYYGAAEYEGLYGYGYWGQGTQVTVSS,high polyreactivity
15,QVQLVESGGVLVQAGGSLRLSCAASGSIFSYNVMGWYRQAQGKEREFVAAITRSGGSTYYADSVKGRFTISRDNAKNTVYLQMNSLKPEDTAVYYCATAYYYTPFREYYYWGQGTQVTVSS,low polyreactivity
16,QVQLVESGGVLVQAGGSLRLSCAASGSIFYVNTMGWYRQAPGKDRELVADISSGDSTYYADSVKGRFTISRDNAKNTVYLQMNSLKPEDTAVFYCNADVYSWVSGKEGDYWGQGTQVTVSS,low polyreactivity
17,QVQLVESGGVLVQAGGSLRLSCAASGSILSNYAMGWYRQAPGKERELVASISSTAGSTYYADSVKGRFTISRDNCKNTVYLQMNSLKPEDTAVYYSIKVFGGGTYDFWGQGTQVTVSS,low polyreactivity
18,QVQLVESGGVLVQAGGSLRLSCAASGSTFEYNVMGWYRPAPGKERELVAAITTGASTNYADSVKGRFTISRDNAKNTVYLQMNCLKPEDTAVYYCAARYWRVRHGSVPAYSGYDYWGLGTQVTVSS,low polyreactivity
19,QVQLVESGGVLVQAGGSLRLSCAASGSTFGPNAMGWYRQAPGKERELVAAIRSNGGRTYYADSVKGRFTISRDNAKNTVYLQMNSLKPEDTAVYYCAAPHYPYDTPYGYWGQGTQVTVSS,low polyreactivity
20,QVQLVESGGVLVQAGGSLRLSCAASGSTFLDYAMGWYRQAPGKERELVAAITSGGSTYYADSVKGRFTISRDNAKNTVDLHMKSMIPEDTAVYYCAADSVTGNAPSLVGDIYYYWGQGTQVTVSS,low polyreactivity
21,QVQLVESGGVLVQAGGSLRLSCAASGSTFLGYAMGWYRQAPGKERELVAAISSGGSTNYADSVKGRFTLSRDNAKNTVYLQMNSLKPDDTAVYYCGARTRRFRYYYWGQGPQVTVSS,high polyreactivity
22,QVQLVESGGVLVQAGGSLRLSCAASGSTFRRYAMGWYRQAPGKERELVAAITTRGGSTYYADSVKGRFTISRDNAKNTVYLQMNSLKPEDTAVYYCARDYSTYLRTAGDYWGQGTQVTVSS,low polyreactivity

row,Sequence,polyreactivity (PSR sort gate)
1,QVQLVESGGVLVQAGGSLRLSCAASGSTFSVNVMGWSRQAPGKERELVAAINSGGSTDYADSVKGRLTISRDNAKNTVYLQMNSLKPEYTAVYYCNAYDIVIYDYWGQGTQVTVSS,low polyreactivity
2,QVQLVESGGVLVQAGGSLRLSCAASGSTFSWYAMGWYRQAPGKERELFAGITRSDGSTYYADSVKGRFTNSRDNAKNNVYLQMNSLKPEDTAVYYCAADDYIIRYGTNVDYWGQGTQVTVSS,low polyreactivity
3,QVQLVESGGVLVQAGGSLRLSCAASGSTFTYNAMGWYRQAPGKEREFVAANSVGGGITYYADSVKGRFTISRDYAKNTVYLQMKSLKPEDTAVYYCAADGEYPHSEDFEYWGQGTQVTVSS,low polyreactivity
4,QVQLVESGGVLVQAGGSLRLSCAASGSTFVRNAMGWYRQAPGKEWELVAAITGTGDSTYYADSVKGRFTISRDNAKNTVYLQMNSLKPEDTAVYYCAANSDAYRYWYDYWGQGTQVTVSS,low polyreactivity
5,QVQLVESGGVLVQAGGSLRLSCAASGSTFYRYAMGWYRQAPGKERELVAANTRGSRTYYADSVKGRFTISRDNAKNTVYLQMNSLKPEDTAVYYCAAYRDYGSYGSWGQGTQVTVSS,high polyreactivity
6,QVQLVESGGVLVQAGGSLRLSCAASGYIFQTYAMGWYRPAPGKEREFVAAISFIGSSTRYADSVKGRFTISRDNAKNTVYLQMNSLKPEDTAVYYCNNDTITSTWTPYTSWFGYWGQGTQVTVSS,high polyreactivity
7,QVQLVESGGVLVQAGGSLRLSCAATGRIKDNVMGWYRQAPGKERELVAAITRSARRTYYADSVTGRFTISRDNAKNTVYLQMNSLKPEDTAVYYCAAQAERYGFEYWGQGTQVTVSS,low polyreactivity
8,QVQLVESGGVLVQAGGSLRLSCAATVFIFKGNAMGWYRQAPGKEREFVADISARGGSTYYADSVKGRFTISRDNAKNTVYLQMNTLKPEDTAVYYCAATTGLYTRYGYWGQGTQVTVSS,high polyreactivity
9,QVQLVESGGVLVQAGGSLRLSCPASGRIYDGYAMGWYRQAPGKERELVAAINSNDGTTYYADSVKGRFTISRDNAKNTVYLQMNSLKPEDTAVYYCAKVSYNAWSYGPQMDYWGQGTQVTVSS,low polyreactivity
10,QVQLVESGGVLVQAGGSLRLSSAAYGFIFAKYAMVWYIQAHGKERELVAGISESCGSTYYADSVKGRFTISRDNAKNTVYLQLNSLKPEDTAVYYCNADDTVYFIKAGDYWGQGTQGTVSS,high polyreactivity
11,QVQLVESGGVLVQAGVSLRLSCAASGRNFLWYVMGCYRQAPGKERELVAAISSGGRTYYADSVKGRFTSSRDNAKHTLYLQMNSLKPEDTAVYYCAAVRRYLKAAYGYWGQGTQVTVSS,low polyreactivity
12,QVQLVESGGVLVQAVGSLRLSCAASGRIFYPYVMGWYRPAPGKERELVASITSGGGTYYADSVKGRFTISRDNAKNTVYLQMNSLKPEDTAGYYCNALAIWSEDWDHWISYADDYSGQGTQVTVSS,low polyreactivity
13,QVQLVESGPGLVQAGGSLRLSCAASGRIFTANAMGWYRQAPGKERELVAAITTSDGTYYADSVKGRFTISRDNAKNTVYLQMYSLKPEVTAVYYCATDTATYPPAMDDWGQGTQVTVSS,low polyreactivity
14,QVQLVESGRALVQAGGSLRLSCAASGFTFWTNTMGWYIQAPGKERELVAAITSTGGTTYYADSVKGRFTISRDNAKNTVYLQMNSLKAEDTAVYYCAAELGGYVASYYYPGYDYWGQGTQVTVSS,low polyreactivity
15,QVQLVESGRGFVQAGGRLRLSCAASGRTFGRYTMGWYRQAPGKDRELVASISNTARTNYADSVKGRFTISRDNAKNTVYLQMNSLKPEDTAVYYCAATYIVRYGYWGQGTQVTVSS,low polyreactivity
16,QVQLVESGRGIVQAGGSLRLSCAASGIIFGGNAMVWYRQAPGKERELVARIRWGGGSTYYADSVKGRFTISRDNAKNTVYLQMNSLKPEDTAVYYCARTTSYLTSTRRYYYWGQGTQVTVSS,high polyreactivity
17,QVQLVESGRGIVQAGGSLRLSCAASGLSFSNYAMGWYRQAPGKERELVARITTSGGRTYYADSVKGRFTISRDNANNTEYLKMNSLKPEDTAVYYCAANNRRRPSYDYDSWGQGTQVTVSS,low polyreactivity
18,QVQLVESGRGLDQAGGSHRISCAGSARIFTIYAMGCYRQAPGKERELVAAISKSGGRTYYADSVKGRFTISRDNAKNTVYVQMNSLKPEDTAVYYCAARWRSWRYKYDYWGQGTQVTVSS,high polyreactivity
19,QVQLVESGRGLFQAGGSLRISCAPSGSNFGYYTMGWYRQAPGKDRELVAAITWSGGSTYYADSVKGRFTISRDNAKNTDYLQMYSLKPEDTAVYYCAADGFYYRNWGRIRYYYWGQGTQVTVSS,low polyreactivity
20,QVQLVESGRGLVHAGGSLRISCAASGSTYTWNVMGWYRQAPGKERELVADINSGADTSYADSVKGRFTISRDNAKNTVYLQMNSLKPEDTGVYYCAADIYVYDYWGQGTQVTVSS,low polyreactivity
21,QVQLVESGRGLVHAGGSLRLSCAASGFILGVNERGWYRQAPGKERELVAAISQGDGSKYYADSVKGRFTISRDNANNTVYLQMNSLKPEDTAVYYCNAELYRDLRGYDHWGQGTQVTVSS,low polyreactivity
